The supplement of paper PMC7877785
± gives the uncertainty stated by the source.

Experiment: self-splicing fitness, log relative to wild type (ln ratio); higher = more splicing; Tetrahymena group I intron in knt gene, E. coli kanamycin selection, DiMSum; sequences stand for … in CUCUCU…GGAGGGAAAAGUUAUCAGGCAUGCACCUGGUAGCUAGUCUUUAAACCAAUAGAUUGCAUCGGUUUAAAAGGCAAGACCGUCAAAUUGCGGGAAAGGGGUCAACAGCCGUUCAGUACCAAGUCUCAGGGGAAACUUUGAGAUGGCCUUGCAAAGGGUAUGGUAAUAAGCUGACGGACAUGGUCCUAACCACGCAGCCAAGUCCUAAGUCAACAGAUCUUCUGUUGAUAUGGAUGCAGUUCACAGACUAAAUGUCGGUCGGGGAAGAUGUAUUCUUCUCAUAAGAUAUAGUCGGACCUCUCCUUAAUGGGAGCUAGCGGAUGAAGUGAUGCAACACUGGAGCCGCUGGGAACUAAUUUGUAUGCGAAAGUAUAUUGAUUAGUUUUGGAGUACUCGUGGUCG
Summary of the method: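 DiMSum derived fitness as the error-weighted combination of fold changes across replicates, kanamycin versus no kanamycin, normalised to wild type. E. coli BL21(DE3) held the library, which randomised all eight P1ex-region intron nucleotides within the knt kanamycin-resistance gene on pET-22b(+). Six replicate transformations grew overnight at 37°C or 30°C on LB agar with or without 25 μg/mL kanamycin, also containing 100 μg/mL carbenicillin, 50 μM IPTG and 0.2% rhamnose, and pooled colonies were amplicon-sequenced on an Illumina HiSeq 2500.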

UUUAAGCAAUAUUACGGAAA
self-splicing fitness (ln) (30 °C): -2.33 ± 0.23
self-splicing fitness (ln) (37 °C): -0.53 ± 0.23

UUUAAGCAAUAUUACGGAGA
self-splicing fitness (ln) (30 °C): -2.18 ± 0.21
self-splicing fitness (ln) (37 °C): -0.727 ± 0.17

UUUAAGCAAUAUUACGGGAG
self-splicing fitness (ln) (30 °C): -1.75 ± 0.089
self-splicing fitness (ln) (37 °C): -1.32 ± 0.1

UUUAAGCAAUAUUACGGGGA
self-splicing fitness (ln) (30 °C): -1.27 ± 0.1
self-splicing fitness (ln) (37 °C): -0.724 ± 0.11

UUUAAGCAAUAUUACGGUUC
self-splicing fitness (ln) (30 °C): -3.56 ± 0.21
self-splicing fitness (ln) (37 °C): -2.47 ± 0.2

UUUAAGCAAUAUUACGUAAC
self-splicing fitness (ln) (30 °C): -3.67 ± 0.29
self-splicing fitness (ln) (37 °C): -2.17 ± 0.19

UUUAAGCAAUAUUACGUAGG
self-splicing fitness (ln) (30 °C): -0.802 ± 0.058
self-splicing fitness (ln) (37 °C): -0.287 ± 0.086

UUUAAGCAAUAUUACGUAGU
self-splicing fitness (ln) (30 °C): -2.62 ± 0.13
self-splicing fitness (ln) (37 °C): -2.13 ± 0.18

UUUAAGCAAUAUUACGUCCU
self-splicing fitness (ln) (30 °C): -1.82 ± 0.2
self-splicing fitness (ln) (37 °C): -1.09 ± 0.15

UUUAAGCAAUAUUACGUGCG
self-splicing fitness (ln) (30 °C): -0.659 ± 0.088
self-splicing fitness (ln) (37 °C): -0.486 ± 0.11

UUUAAGCAAUAUUACGUGCU
self-splicing fitness (ln) (30 °C): -3.09 ± 0.18
self-splicing fitness (ln) (37 °C): -1.41 ± 0.15

UUUAAGCAAUAUUACGUGUU
self-splicing fitness (ln) (30 °C): -3.32 ± 0.2
self-splicing fitness (ln) (37 °C): -2.57 ± 0.22

UUUAAGCAAUAUUACGUUGA
self-splicing fitness (ln) (30 °C): -2.17 ± 0.23
self-splicing fitness (ln) (37 °C): -1.5 ± 0.2

UUUAAGCAAUAUUACGUUGU
self-splicing fitness (ln) (30 °C): -3.69 ± 0.25
self-splicing fitness (ln) (37 °C): -2.2 ± 0.26

UUUCAGCAAUAUUACGAAAU
self-splicing fitness (ln) (37 °C): -2.26 ± 0.4

UUUCAGCAAUAUUACGACGG
self-splicing fitness (ln) (30 °C): -1.02 ± 0.11
self-splicing fitness (ln) (37 °C): 0.205 ± 0.17

UUUCAGCAAUAUUACGAGAA
self-splicing fitness (ln) (30 °C): -1.92 ± 0.37
self-splicing fitness (ln) (37 °C): -1.49 ± 0.24

UUUCAGCAAUAUUACGAGAC
self-splicing fitness (ln) (30 °C): -2.68 ± 0.36
self-splicing fitness (ln) (37 °C): -3.57 ± 0.46

UUUCAGCAAUAUUACGAGAG
self-splicing fitness (ln) (30 °C): -1.8 ± 0.069
self-splicing fitness (ln) (37 °C): -1.91 ± 0.088

UUUCAGCAAUAUUACGAGCU
self-splicing fitness (ln) (37 °C): -1.95 ± 0.5

UUUCAGCAAUAUUACGAUGA
self-splicing fitness (ln) (30 °C): -0.807 ± 0.081
self-splicing fitness (ln) (37 °C): -0.285 ± 0.075

UUUCAGCAAUAUUACGCAUC
self-splicing fitness (ln) (30 °C): -2.79 ± 0.14
self-splicing fitness (ln) (37 °C): -0.623 ± 0.11

UUUCAGCAAUAUUACGCCUC
self-splicing fitness (ln) (37 °C): -1.38 ± 0.41

UUUCAGCAAUAUUACGCGAA
self-splicing fitness (ln) (30 °C): -2.03 ± 0.14
self-splicing fitness (ln) (37 °C): -1.21 ± 0.14

UUUCAGCAAUAUUACGCUAG
self-splicing fitness (ln) (30 °C): -0.789 ± 0.084
self-splicing fitness (ln) (37 °C): -0.5 ± 0.1

UUUCAGCAAUAUUACGCUCG
self-splicing fitness (ln) (30 °C): 0.0268 ± 0.097
self-splicing fitness (ln) (37 °C): 0.385 ± 0.15

UUUCAGCAAUAUUACGCUUA
self-splicing fitness (ln) (30 °C): -0.378 ± 0.086
self-splicing fitness (ln) (37 °C): 0.0227 ± 0.12

UUUCAGCAAUAUUACGGACA
self-splicing fitness (ln) (30 °C): -0.569 ± 0.09
self-splicing fitness (ln) (37 °C): -0.204 ± 0.1

UUUCAGCAAUAUUACGGAUA
self-splicing fitness (ln) (30 °C): -0.515 ± 0.11
self-splicing fitness (ln) (37 °C): -0.565 ± 0.11

UUUCAGCAAUAUUACGGAUU
self-splicing fitness (ln) (30 °C): -1.63 ± 0.083
self-splicing fitness (ln) (37 °C): -0.55 ± 0.097

UUUCAGCAAUAUUACGGCAC
self-splicing fitness (ln) (30 °C): -1.79 ± 0.19
self-splicing fitness (ln) (37 °C): -2.33 ± 0.24

UUUCAGCAAUAUUACGGCGA
self-splicing fitness (ln) (30 °C): -0.344 ± 0.093
self-splicing fitness (ln) (37 °C): 0.167 ± 0.13

UUUCAGCAAUAUUACGGCUC
self-splicing fitness (ln) (30 °C): -1.77 ± 0.42
self-splicing fitness (ln) (37 °C): 0.0864 ± 0.23

UUUCAGCAAUAUUACGGUCU
self-splicing fitness (ln) (30 °C): -1.45 ± 0.086
self-splicing fitness (ln) (37 °C): -0.667 ± 0.087

UUUCAGCAAUAUUACGUCUU
self-splicing fitness (ln) (30 °C): -2.52 ± 0.17
self-splicing fitness (ln) (37 °C): -1.36 ± 0.13

UUUCAGCAAUAUUACGUGAC
self-splicing fitness (ln) (30 °C): -2.99 ± 0.22
self-splicing fitness (ln) (37 °C): -1.73 ± 0.48

UUUCAGCAAUAUUACGUUCG
self-splicing fitness (ln) (30 °C): -1.09 ± 0.085
self-splicing fitness (ln) (37 °C): -0.545 ± 0.13

UUUGAGCAAUAUUACGAAAG
self-splicing fitness (ln) (37 °C): -2.49 ± 0.23

UUUGAGCAAUAUUACGAAGG
self-splicing fitness (ln) (30 °C): -3.13 ± 0.34
self-splicing fitness (ln) (37 °C): -1.66 ± 0.31

UUUGAGCAAUAUUACGACAG
self-splicing fitness (ln) (30 °C): -2.8 ± 0.15
self-splicing fitness (ln) (37 °C): -1.81 ± 0.18

UUUGAGCAAUAUUACGAGAU
self-splicing fitness (ln) (30 °C): -3.65 ± 0.42
self-splicing fitness (ln) (37 °C): -3.12 ± 0.37

UUUGAGCAAUAUUACGAUCG
self-splicing fitness (ln) (30 °C): -2.23 ± 0.23
self-splicing fitness (ln) (37 °C): -1.81 ± 0.29

UUUGAGCAAUAUUACGCACG
self-splicing fitness (ln) (37 °C): -1.45 ± 0.42

UUUGAGCAAUAUUACGCAUA
self-splicing fitness (ln) (37 °C): -1.01 ± 0.29

UUUGAGCAAUAUUACGCGAA
self-splicing fitness (ln) (30 °C): -2.96 ± 0.34
self-splicing fitness (ln) (37 °C): -1.71 ± 0.2

UUUGAGCAAUAUUACGGAUU
self-splicing fitness (ln) (30 °C): -3.69 ± 0.25
self-splicing fitness (ln) (37 °C): -2.31 ± 0.2

UUUGAGCAAUAUUACGGUGU
self-splicing fitness (ln) (37 °C): -2.7 ± 0.41

UUUGAGCAAUAUUACGUACU
self-splicing fitness (ln) (30 °C): -3.28 ± 0.43

UUUGAGCAAUAUUACGUAUA
self-splicing fitness (ln) (30 °C): -2.78 ± 0.3
self-splicing fitness (ln) (37 °C): -2.67 ± 0.36

UUUGAGCAAUAUUACGUCCA
self-splicing fitness (ln) (37 °C): -0.659 ± 0.37

UUUGAGCAAUAUUACGUCCU
self-splicing fitness (ln) (30 °C): -3.03 ± 0.27
self-splicing fitness (ln) (37 °C): -1.77 ± 0.2

UUUGAGCAAUAUUACGUCGA
self-splicing fitness (ln) (30 °C): -2.46 ± 0.2
self-splicing fitness (ln) (37 °C): -0.692 ± 0.24

UUUGAGCAAUAUUACGUUCA
self-splicing fitness (ln) (37 °C): -2.38 ± 0.36

UUUUAGCAAUAUUACGAAUA
self-splicing fitness (ln) (30 °C): -1.26 ± 0.25
self-splicing fitness (ln) (37 °C): -1.04 ± 0.16

UUUUAGCAAUAUUACGAAUU
self-splicing fitness (ln) (30 °C): -3.26 ± 0.38
self-splicing fitness (ln) (37 °C): -1.23 ± 0.29

UUUUAGCAAUAUUACGAGGA
self-splicing fitness (ln) (30 °C): -1.04 ± 0.17
self-splicing fitness (ln) (37 °C): -1.3 ± 0.21

UUUUAGCAAUAUUACGAGUA
self-splicing fitness (ln) (30 °C): -1.55 ± 0.27
self-splicing fitness (ln) (37 °C): -0.821 ± 0.29

UUUUAGCAAUAUUACGAUAC
self-splicing fitness (ln) (30 °C): -3.18 ± 0.45

UUUUAGCAAUAUUACGCACG
self-splicing fitness (ln) (30 °C): -0.889 ± 0.13
self-splicing fitness (ln) (37 °C): -0.745 ± 0.17

UUUUAGCAAUAUUACGCGCA
self-splicing fitness (ln) (30 °C): -0.13 ± 0.11
self-splicing fitness (ln) (37 °C): -0.0853 ± 0.12

UUUUAGCAAUAUUACGCGGC
self-splicing fitness (ln) (37 °C): -2.34 ± 0.39

UUUUAGCAAUAUUACGCGUC
self-splicing fitness (ln) (37 °C): -1.23 ± 0.25

UUUUAGCAAUAUUACGGACA
self-splicing fitness (ln) (30 °C): -1.41 ± 0.18
self-splicing fitness (ln) (37 °C): -0.668 ± 0.17

UUUUAGCAAUAUUACGGACG
self-splicing fitness (ln) (30 °C): -0.75 ± 0.2
self-splicing fitness (ln) (37 °C): -0.45 ± 0.2

UUUUAGCAAUAUUACGGCGG
self-splicing fitness (ln) (30 °C): -0.446 ± 0.16
self-splicing fitness (ln) (37 °C): -0.137 ± 0.15

UUUUAGCAAUAUUACGGUAG
self-splicing fitness (ln) (30 °C): -1.6 ± 0.18
self-splicing fitness (ln) (37 °C): -1.74 ± 0.16

UUUUAGCAAUAUUACGGUCA
self-splicing fitness (ln) (30 °C): -1.25 ± 0.17
self-splicing fitness (ln) (37 °C): -0.069 ± 0.13

UUUUAGCAAUAUUACGGUGC
self-splicing fitness (ln) (30 °C): -3.63 ± 0.24
self-splicing fitness (ln) (37 °C): -2.98 ± 0.38

UUUUAGCAAUAUUACGGUUA
self-splicing fitness (ln) (30 °C): -1.54 ± 0.2
self-splicing fitness (ln) (37 °C): 0.105 ± 0.13

UUUUAGCAAUAUUACGUAAA
self-splicing fitness (ln) (30 °C): -1.52 ± 0.17
self-splicing fitness (ln) (37 °C): -0.431 ± 0.23

UUUUAGCAAUAUUACGUAGG
self-splicing fitness (ln) (30 °C): -1.99 ± 0.11
self-splicing fitness (ln) (37 °C): -0.229 ± 0.13

UUUUAGCAAUAUUACGUCAG
self-splicing fitness (ln) (30 °C): -3.93 ± 0.47
self-splicing fitness (ln) (37 °C): -0.297 ± 0.27

UUUUAGCAAUAUUACGUCGG
self-splicing fitness (ln) (30 °C): -1.95 ± 0.15
self-splicing fitness (ln) (37 °C): -0.321 ± 0.17

UUUUAGCAAUAUUACGUGGA
self-splicing fitness (ln) (30 °C): -2.5 ± 0.18
self-splicing fitness (ln) (37 °C): -0.992 ± 0.11

UUUUAGCAAUAUUACGUUAA
self-splicing fitness (ln) (30 °C): -2.45 ± 0.37
self-splicing fitness (ln) (37 °C): -2.52 ± 0.48
